In patent US10894036B2, “Use of marizomib for the treatment of central nervous system (CNS) cancers” (Celgene International II Sàrl, priority 2016, dated 2021):

Experiment: Phase 1/2 MRZ + BEV and MRZ monotherapy in recurrent G4 MG: adverse events, DLT
Conditions: for Ataxia: Treatment Related Grade ≥3 AE, # patients / Confusional State: Treatment Related Grade ≥3 AE, # patients / Delusion: Treatment Related Grade ≥3 AE, # patients / Dyspnea: Treatment Related Grade ≥3 AE, # patients / Embolism: Treatment Related Grade ≥3 AE, # patients / Fall: Treatment Related Grade ≥3 AE, # patients / Fatigue: Treatment Related Grade ≥3 AE, # patients / Hallucination: Treatment Related Grade ≥3 AE, # patients / Headache: Treatment Related Grade ≥3 AE, # patients / Hypertension: Treatment Related Grade ≥3 AE, # patients / Hyponatremia: Treatment Related Grade ≥3 AE, # patients / Insomnia: Treatment Related Grade ≥3 AE, # patients / Intracranial Hemorrhage: Treatment Related Grade ≥3 AE, # patients / Optic Nerve Disorder: Treatment Related Grade ≥3 AE, # patients / Proteinuria: Treatment Related Grade ≥3 AE, # patients: attributed to labelled agent
[1] = MRZ 0.7 mg/m^2 + BEV, Cohort 2, N = 3
[2] = MRZ 0.7 mg/m^2 Cohort 2 (N = 3)
[3] = MRZ 0.8 mg/m^2 + BEV, Cohorts 3 & 4, N = 27
[4] = MRZ 0.8 mg/m^2 + BEV, N = 27, related to the labelled drug
[5] = MRZ 0.8 mg/m^2 Cohorts 3 & 4 (N = 27)

## bevacizumab [reference compound]
[1]
  Confusional State, Treatment Related Grade ≥3 AE, patients: 0
  Delusion, Treatment Related Grade ≥3 AE, patients: 0
  Dyspnea, Treatment Related Grade ≥3 AE, patients: 0
  Embolism, Treatment Related Grade ≥3 AE, patients: 0
  Fall, Treatment Related Grade ≥3 AE, patients: 0
  Fatigue, Treatment Related Grade ≥3 AE, patients: 0
  Hallucination, Treatment Related Grade ≥3 AE, patients: 0
  Headache, Treatment Related Grade ≥3 AE, patients: 0
  Hypertension, Treatment Related Grade ≥3 AE, patients: 1
  Hyponatremia, Treatment Related Grade ≥3 AE, patients: 0
  Insomnia, Treatment Related Grade ≥3 AE, patients: 0
  Intracranial Hemorrhage, Treatment Related Grade ≥3 AE, patients: 0
  Optic Nerve Disorder, Treatment Related Grade ≥3 AE, patients: 0
  Proteinuria, Treatment Related Grade ≥3 AE, patients: 1
MRZ 0.7 mg/m^2 + BEV, Cohort 2, N = 3, related to the labelled drug
  Ataxia, Treatment Related Grade ≥3 AE, patients: 0
[2]
  Ataxia: Treatment Related Grade ≥3 AE, # patients: 0
  Confusional State: Treatment Related Grade ≥3 AE, # patients: 0
  Delusion: Treatment Related Grade ≥3 AE, # patients: 0
  Dyspnea: Treatment Related Grade ≥3 AE, # patients: 0
  Embolism: Treatment Related Grade ≥3 AE, # patients: 0
  Fall: Treatment Related Grade ≥3 AE, # patients: 0
  Fatigue: Treatment Related Grade ≥3 AE, # patients: 0
  Hallucination: Treatment Related Grade ≥3 AE, # patients: 0
  Headache: Treatment Related Grade ≥3 AE, # patients: 0
  Hypertension: Treatment Related Grade ≥3 AE, # patients: 1
  Hyponatremia: Treatment Related Grade ≥3 AE, # patients: 0
  Insomnia: Treatment Related Grade ≥3 AE, # patients: 0
  Intracranial Hemorrhage: Treatment Related Grade ≥3 AE, # patients: 0
  Optic Nerve Disorder: Treatment Related Grade ≥3 AE, # patients: 0
  Proteinuria: Treatment Related Grade ≥3 AE, # patients: 1
MRZ 0.8 mg/m^2 + BEV Cohorts 3 & 4, N = 27, related to the labelled drug (MRZ + BEV = related to both)
  Fatigue, treatment-related AE, patients: 18 (66.7%)
[3]
  Confusional State, Treatment Related Grade ≥3 AE, patients: 0
  Delusion, Treatment Related Grade ≥3 AE, patients: 0
  Dyspnea, Treatment Related Grade ≥3 AE, patients: 1
  Embolism, Treatment Related Grade ≥3 AE, patients: 1
  Fall, Treatment Related Grade ≥3 AE, patients: 0
  Fatigue, Treatment Related Grade ≥3 AE, patients: 1
  Hallucination, Treatment Related Grade ≥3 AE, patients: 0
  Headache, Treatment Related Grade ≥3 AE, patients: 1
  Hypertension, Treatment Related Grade ≥3 AE, patients: 5
  Hyponatremia, Treatment Related Grade ≥3 AE, patients: 0
  Insomnia, Treatment Related Grade ≥3 AE, patients: 0
  Intracranial Hemorrhage, Treatment Related Grade ≥3 AE, patients: 1
  Optic Nerve Disorder, Treatment Related Grade ≥3 AE, patients: 1
  Proteinuria, Treatment Related Grade ≥3 AE, patients: 0
MRZ 0.8 mg/m^2 + BEV, Cohorts 3 & 4, N = 27, related to the labelled drug
  Ataxia, Treatment Related Grade ≥3 AE, patients: 0
[4]
  Anaemia, treatment-related AE, patients: 0 (0.0%)
  Ataxia, treatment-related AE, patients: 0 (0.0%)
  Confusional state, treatment-related AE, patients: 1 (3.7%)
  Constipation, treatment-related AE, patients: 1 (3.7%)
  Diarrhoea, treatment-related AE, patients: 1 (3.7%)
  Dizziness, treatment-related AE, patients: 1 (3.7%)
  Dysphonia, treatment-related AE, patients: 10 (37.0%)
  Epistaxis, treatment-related AE, patients: 7 (25.9%)
  Fall, treatment-related AE, patients: 0 (0.0%)
  Hallucination, treatment-related AE, patients: 0 (0.0%)
  Headache, treatment-related AE, patients: 6 (22.2%)
  Infusion site pain, treatment-related AE, patients: 1 (3.7%)
  Muscular weakness, treatment-related AE, patients: 1 (3.7%)
  Platelet count decreased, treatment-related AE, patients: 3 (11.1%)
  Upper-airway cough syndrome, treatment-related AE, patients: 5 (18.5%)
[5]
  Ataxia: Treatment Related Grade ≥3 AE, # patients: 0
  Confusional State: Treatment Related Grade ≥3 AE, # patients: 0
  Delusion: Treatment Related Grade ≥3 AE, # patients: 0
  Dyspnea: Treatment Related Grade ≥3 AE, # patients: 1
  Embolism: Treatment Related Grade ≥3 AE, # patients: 1
  Fall: Treatment Related Grade ≥3 AE, # patients: 0
  Fatigue: Treatment Related Grade ≥3 AE, # patients: 1
  Hallucination: Treatment Related Grade ≥3 AE, # patients: 0
  Headache: Treatment Related Grade ≥3 AE, # patients: 1
  Hypertension: Treatment Related Grade ≥3 AE, # patients: 5
  Hyponatremia: Treatment Related Grade ≥3 AE, # patients: 0
  Insomnia: Treatment Related Grade ≥3 AE, # patients: 0
  Intracranial Hemorrhage: Treatment Related Grade ≥3 AE, # patients: 1
  Optic Nerve Disorder: Treatment Related Grade ≥3 AE, # patients: 1
  Proteinuria: Treatment Related Grade ≥3 AE, # patients: 0
MRZ+BEV, 12 Sep. 2016
  Anaemia: # pts, related to BEV: 0
  Anxiety: # pts, related to BEV: 0
  Aphasia: # pts, related to BEV: 0
  Appendicitis Perforated: # pts, related to BEV: 0
  Asthenia: # pts, related to BEV: 0
  Ataxia: # pts, related to BEV: 0
  Confusional State: # pts, related to BEV: 0
  Constipation: # pts, related to BEV: 0
  Convulsion: # pts, related to BEV: 0
  Delusion: # pts, related to BEV: 0
  Depressed Level of Consciousness: # pts, related to BEV: 0
  Diarrhoea: # pts, related to BEV: 0
  Dizziness: # pts, related to BEV: 0
  Dysarthria: # pts, related to BEV: 0
  Dysphagia: # pts, related to BEV: 0
  Dysphonia: # pts, related to BEV: 10
  Dyspnoea: # pts, related to BEV: 0
